Experiment [1] deals with human CD44-IgG1 fusion protein (extracellular domain of human CD44 fused to human IgG1) (human). Put plainly: ELISA: antibody pre-mixed with human CD44-Ig (0.6 µg/ml); inhibition of CD44-Ig binding to plate-coated hyaluronic acid (HA).
Experiment [2] concerns the target human CD44 (on cells) (human) (UniProt P16070). As to the kind of experiment: cell-based or functional assay.
Experiment [3] has as its target cynomolgus CD44 (on cells) (cynomolgus monkey). Put plainly: cell-based or functional assay.
Experiment [4] concerns the target lymphatic vessel endothelial hyaluronan receptor 1 protein (LYVE-1) (R&D, Cat. No. 2089-Ly) (UniProt Q9Y5Y7). Put plainly: ELISA on plate-coated LYVE-1 (50 ng), anti-goat IgG-HRP detection.

Sequence of human CD44 (on cells) (human) (P16070 other isoform, or with tags, fused parts or gaps limits assumed): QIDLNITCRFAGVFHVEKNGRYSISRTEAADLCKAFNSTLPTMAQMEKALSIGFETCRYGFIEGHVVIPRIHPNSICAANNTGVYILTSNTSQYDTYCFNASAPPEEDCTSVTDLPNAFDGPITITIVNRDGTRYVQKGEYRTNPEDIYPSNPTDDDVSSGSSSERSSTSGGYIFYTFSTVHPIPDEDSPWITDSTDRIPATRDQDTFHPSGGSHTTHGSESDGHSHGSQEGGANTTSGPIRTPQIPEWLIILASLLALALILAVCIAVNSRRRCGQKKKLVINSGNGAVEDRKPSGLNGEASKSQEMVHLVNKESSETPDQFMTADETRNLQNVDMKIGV
Sequence of human CD44-IgG1 fusion protein (extracellular domain of human CD44 fused to human IgG1) (human) (chain, as listed by the source limits assumed): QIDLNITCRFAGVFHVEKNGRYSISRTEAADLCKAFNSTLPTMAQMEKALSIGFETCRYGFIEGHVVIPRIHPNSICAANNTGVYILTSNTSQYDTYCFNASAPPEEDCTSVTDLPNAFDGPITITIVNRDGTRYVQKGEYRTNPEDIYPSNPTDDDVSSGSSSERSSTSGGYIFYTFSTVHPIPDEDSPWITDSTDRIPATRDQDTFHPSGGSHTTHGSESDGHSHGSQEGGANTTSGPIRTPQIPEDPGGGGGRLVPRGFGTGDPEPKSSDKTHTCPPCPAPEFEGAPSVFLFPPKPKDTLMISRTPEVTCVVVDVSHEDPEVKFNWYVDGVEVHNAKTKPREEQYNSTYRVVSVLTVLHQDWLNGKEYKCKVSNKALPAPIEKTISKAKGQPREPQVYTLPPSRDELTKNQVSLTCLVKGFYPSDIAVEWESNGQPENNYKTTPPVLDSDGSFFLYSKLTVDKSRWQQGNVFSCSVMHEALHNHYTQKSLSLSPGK
Sequence of cynomolgus CD44 (on cells) (cynomolgus monkey) (P16070 other isoform, or with tags, fused parts or gaps limits assumed): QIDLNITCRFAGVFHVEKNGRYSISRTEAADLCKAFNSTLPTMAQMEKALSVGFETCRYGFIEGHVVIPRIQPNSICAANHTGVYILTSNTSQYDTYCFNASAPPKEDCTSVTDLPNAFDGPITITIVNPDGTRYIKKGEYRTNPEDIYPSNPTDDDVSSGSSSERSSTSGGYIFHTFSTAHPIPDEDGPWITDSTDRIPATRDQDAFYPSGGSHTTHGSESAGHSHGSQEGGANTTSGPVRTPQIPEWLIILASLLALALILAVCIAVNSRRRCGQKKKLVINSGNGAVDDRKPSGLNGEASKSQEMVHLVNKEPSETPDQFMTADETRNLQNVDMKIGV
Sequence of lymphatic vessel endothelial hyaluronan receptor 1 protein (LYVE-1) (R&D, Cat. No. 2089-Ly) (Q9Y5Y7 24-232 limits assumed): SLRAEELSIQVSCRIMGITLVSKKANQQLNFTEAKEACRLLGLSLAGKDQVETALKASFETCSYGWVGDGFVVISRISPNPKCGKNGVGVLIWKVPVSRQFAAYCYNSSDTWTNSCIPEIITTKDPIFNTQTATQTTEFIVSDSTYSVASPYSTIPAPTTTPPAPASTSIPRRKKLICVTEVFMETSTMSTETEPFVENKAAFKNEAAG

“anti-CD44 antibody 515 (BD Bioscience, Cat. No. 550990)” yielded an IC50 in experiment [1] of 0.32 µg/mL. This substance also showed an IC50 of IL-1β release from purified human PBMC stimulated by HA in experiment [2] of 1.46 µg/mL.

As for “anti-CD44 antibody IM7 (BD Bioscience, Cat. No. 553134)”, the IC50 in experiment [1] was determined as 1.85 µg/mL. Besides, in experiment [2], the IC50 of IL-1β release from purified human PBMC stimulated by HA worked out at 1.62 µg/mL and the IC50 of reduction of CD44 surface expression on human peripheral CD3+ T cells (FACS) came out at 1.5 µg/mL. This substance also returned an IC50 of reduction of CD44 surface expression on cynomolgus peripheral CD3+ T cells (FACS) in experiment [3] of 9.9 µg/mL.

For the substance “anti-LYVE-1 antibody (R&D, Cat. No. AF 2089)”, the EC50 in experiment [4] came to 0.1 µg/mL.

The record behind these values is patent US20100092484A1.
